Earlier results, collected in PMC11145553.

Biological target: LRP1 (Homo sapiens) (UniProt Q07954)

2N4R tau, sequence (P10636 2-758): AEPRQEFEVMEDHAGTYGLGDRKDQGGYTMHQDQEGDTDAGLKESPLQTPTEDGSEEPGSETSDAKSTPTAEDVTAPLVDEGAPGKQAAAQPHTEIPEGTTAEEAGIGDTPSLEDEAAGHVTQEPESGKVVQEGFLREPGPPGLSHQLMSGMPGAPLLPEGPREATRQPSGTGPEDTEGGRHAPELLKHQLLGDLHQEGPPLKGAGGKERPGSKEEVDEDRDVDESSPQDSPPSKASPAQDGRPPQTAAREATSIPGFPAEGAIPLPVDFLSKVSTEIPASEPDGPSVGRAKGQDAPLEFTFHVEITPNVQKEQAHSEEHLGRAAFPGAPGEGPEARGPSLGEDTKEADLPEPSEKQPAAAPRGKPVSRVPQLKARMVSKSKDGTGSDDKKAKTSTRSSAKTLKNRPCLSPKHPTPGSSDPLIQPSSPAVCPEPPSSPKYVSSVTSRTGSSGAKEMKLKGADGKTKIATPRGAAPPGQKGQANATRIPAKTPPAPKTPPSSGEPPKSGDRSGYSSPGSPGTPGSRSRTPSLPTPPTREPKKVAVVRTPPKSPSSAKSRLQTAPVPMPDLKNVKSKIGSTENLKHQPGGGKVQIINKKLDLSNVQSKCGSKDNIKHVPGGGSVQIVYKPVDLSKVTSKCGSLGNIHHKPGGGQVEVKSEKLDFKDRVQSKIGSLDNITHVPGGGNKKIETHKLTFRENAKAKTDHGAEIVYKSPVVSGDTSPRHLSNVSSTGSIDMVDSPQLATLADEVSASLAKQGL

- Kd: 60 nM
Substance: 2N4R tau (from UniProt P10636)
